Several values for one entry are separate records, joined by “and”; a condition that tells them apart may be missing. Equal values may be shown once.
T1: human prolactin receptor (PRLR) on cells (human, UniProt P16471 25-622)
T1 construct: whole, on cells; also called human PRLR; hPRLR
T1 sequence (looked up): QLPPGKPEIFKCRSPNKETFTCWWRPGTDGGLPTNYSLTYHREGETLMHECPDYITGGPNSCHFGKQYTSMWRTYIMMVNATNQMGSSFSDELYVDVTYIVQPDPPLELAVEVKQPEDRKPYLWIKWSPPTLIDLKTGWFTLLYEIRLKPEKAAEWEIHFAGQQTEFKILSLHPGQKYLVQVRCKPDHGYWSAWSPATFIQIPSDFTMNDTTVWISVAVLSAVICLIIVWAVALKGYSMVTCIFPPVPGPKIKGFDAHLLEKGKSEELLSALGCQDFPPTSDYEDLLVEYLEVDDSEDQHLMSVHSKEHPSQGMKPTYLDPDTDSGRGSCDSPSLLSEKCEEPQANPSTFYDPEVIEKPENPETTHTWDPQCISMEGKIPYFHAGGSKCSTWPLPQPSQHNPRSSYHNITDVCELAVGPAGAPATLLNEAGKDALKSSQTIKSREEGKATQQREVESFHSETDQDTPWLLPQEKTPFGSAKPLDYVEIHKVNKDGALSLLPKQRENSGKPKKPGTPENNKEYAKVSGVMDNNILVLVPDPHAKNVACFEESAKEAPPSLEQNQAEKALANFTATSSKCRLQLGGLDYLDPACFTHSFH

T2: rat prolactin receptor (PRLR) on Nb2 lymphoma cells (rat, UniProt P05710 20-610)
T2 construct: whole, on cells; also called rat PRLR
T2 sequence (looked up): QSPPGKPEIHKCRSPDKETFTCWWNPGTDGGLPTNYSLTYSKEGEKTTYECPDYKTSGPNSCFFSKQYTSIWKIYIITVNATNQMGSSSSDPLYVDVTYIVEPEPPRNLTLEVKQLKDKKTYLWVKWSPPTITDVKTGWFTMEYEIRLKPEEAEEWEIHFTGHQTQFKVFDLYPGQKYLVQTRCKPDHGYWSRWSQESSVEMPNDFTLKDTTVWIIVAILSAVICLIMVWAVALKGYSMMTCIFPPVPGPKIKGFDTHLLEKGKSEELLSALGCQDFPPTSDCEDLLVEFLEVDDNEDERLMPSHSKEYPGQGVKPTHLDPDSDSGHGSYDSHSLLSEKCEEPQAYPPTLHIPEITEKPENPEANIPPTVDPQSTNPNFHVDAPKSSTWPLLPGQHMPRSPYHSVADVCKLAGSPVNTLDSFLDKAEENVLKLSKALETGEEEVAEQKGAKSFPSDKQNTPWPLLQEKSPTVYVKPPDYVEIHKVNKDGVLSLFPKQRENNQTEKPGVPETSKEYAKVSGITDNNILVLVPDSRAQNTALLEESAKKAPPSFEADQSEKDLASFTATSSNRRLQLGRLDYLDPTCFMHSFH

T3: extracellular domain of human PRLR (monomeric, soluble) (human, UniProt P16471 25-234)
T3 construct: also called ECD-PRLR; ECD of PRLR
T3 sequence: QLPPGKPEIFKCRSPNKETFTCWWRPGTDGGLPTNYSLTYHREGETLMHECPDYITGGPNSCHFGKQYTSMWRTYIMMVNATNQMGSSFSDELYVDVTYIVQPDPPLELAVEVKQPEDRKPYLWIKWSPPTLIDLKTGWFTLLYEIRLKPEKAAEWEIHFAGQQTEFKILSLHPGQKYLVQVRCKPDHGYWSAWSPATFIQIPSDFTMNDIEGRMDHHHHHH


Tests used:
[1] = molecular target: T1, human prolactin receptor (PRLR) on cells; test: FACS on human breast cancer cell line T47D, IgG1
[2] = molecular target: T2, rat prolactin receptor (PRLR) on Nb2 …; test: FACS on rat lymphoma cell line Nb2, IgG1
[3] = molecular target: T3, extracellular domain of human PRLR …; test: SPR (Biacore), IgG1 directly immobilized, monomeric human PRLR ECD from HEK293 as analyte
[4] = molecular target: T1, human prolactin receptor (PRLR) on cells; test: cell-based or functional assay
[5] = molecular target: T1, human prolactin receptor (PRLR) on cells; test: cell-based or functional assay; remark: listed apart in the source

Row | EC50 [1] [nM] | binding result [2] | Kd [3] [nM] | koff [3] [s⁻¹] | Inhibition of phosphorylation of ERK1/2 in % at 7.5 µg/ml (ELISA, prolactin-treated T47D lysates) [4] [%] | Inhibition of phosphorylation of PRLR in % at 7.5 µg/ml (ELISA, prolactin-treated T47D lysates) [4] [%] | Inhibition of phosphorylation of STAT5 in % at 7.5 µg/ml (ELISA, prolactin-treated T47D lysates) [4] [%] | IC50, inhibition of prolactin-activated Ba/F cell proliferation (human PRLR) [5] | EC50 [2] [nM] | IC50, prolactin-activated luciferase reporter gene activity, HEK293 cells with hPRLR [5] | Binder
1 | 0.3 | no binding | 0.2 | 0.00017 | – | – | – | – | – | – | XHA06.983 (antibody, V domains shown, Novartis antibody (WO2008/022295)) VH: DVQLVESGGGLVQPGGSRKLSCAASGFAFSSFGMQWVRQAPEKGLEWVAYISSGSSTIYYADTVKGRFTISRDNPKNTLFLQMTSLRSEDTAMYYCVRSGRDYWGQGTSVTVSS VL: SIVMTQTPKFLLVSAGDRVTITCKASQGVSNDVAWFQQKPGQSPKLLIYSASTRYTGVPDRLTGSGYGTDFTFTINTVQAEDLAVYFCQQDYTSPTFGGGTKLEIKR
2 | – | – | – | – | 85 | 88 | 73 | – | – | – | 006-H07 (scFv format) (scFv, V domains shown) VH: QVELLESGGGLVQPGGSLRLSCAASGFTFEDHGMSWVRQAPGKGLEWVSLISWDDGSNKYYADSVKGRFTISRDNSKNTLYLQMNSLRAEDTAVYYCATSLRATAFDTWGQGTLVTVSS VL: not shown
3 | 0.4 | no binding | 2 | 0.0013 | – | – | – | – | – | – | 006-H07 (antibody, V domains shown, Tested as human IgG1) VH: QVELLESGGGLVQPGGSLRLSCAASGFTFEDHGMSWVRQAPGKGLEWVSLISWDDGSNKYYADSVKGRFTISRDNSKNTLYLQMNSLRAEDTAVYYCATSLRATAFDTWGQGTLVTVSS VL: not shown
4 | 1.9 | – | 12.2 | 0.0093 | – | – | – | 1.29 µg/ml and 8.6 nM | 0.5 | – | 005-C04 (antibody, V domains shown, Tested as human IgG1; also called IgG1 005-C04; 005-004) VH: EVQLLESGGGLVQPGGSLRLSCAASGFTFSSYWMHWVRQAPGKGLEWVSDISSASSYTNYADSVKGRFTISRDNSKNTLYLQMNSLRAEDTAVYYCARGLDARRMDYWGQGTLVTVSS VL: QSVLTQPPSASGTPGQRVTISCTGSSSNIGAGYVVHWYQQLPGTAPKLLIYRNNQRPSGVPDRFSGSKSGTSASLAISGLRSEDEADYYCAAWDDSLNGWLFGGGTKLTVLG
5 | – | – | 1.8 | 0.0002 | – | – | – | 4.8 nM and 0.72 µg/ml | – | – | 002-H08 (antibody, V domains shown, Tested as human IgG1) VH: QVELLESGGGLVQPGGSLRLSCAASGFTFSSYGMHWVRQAPGKGLEWVSGVSWNGSRTHYADSVKGRLTISRDNSKNTLYLQMNSLRAEDTAVYYCARGGDFDYWGQGTLVTVSS VL: QSVLTQPPSASGTPGQRVTISCSGSSSNIGSNDVYWYQQLPGTAPKLLIYDNNKRPSGVPDRFSGSKSGTSASLAISGLRSEDEADYYCQSYDSSLSGSWVFGGGTKLTVLG
6 | – | – | – | – | 100 | 100 | 98 | – | – | – | 002-H08 (Fab format) (Fab, V domains shown) VH: QVELLESGGGLVQPGGSLRLSCAASGFTFSSYGMHWVRQAPGKGLEWVSGVSWNGSRTHYADSVKGRLTISRDNSKNTLYLQMNSLRAEDTAVYYCARGGDFDYWGQGTLVTVSS VL: QSVLTQPPSASGTPGQRVTISCSGSSSNIGSNDVYWYQQLPGTAPKLLIYDNNKRPSGVPDRFSGSKSGTSASLAISGLRSEDEADYYCQSYDSSLSGSWVFGGGTKLTVLG
7 | 1.3 | no binding | 0.7 | 0.00024 | – | – | – | 0.15 µg/ml and 1 nM | – | 0.83 mg/ml and 5.5 nM | 006-H08 (antibody, V domains shown, Tested as human IgG1; also called IgG1 006-H08) VH: not shown VL: DIVLTQPPSASGTPGQRVTISCSGSNSNIGSNPVNWYQQLPGTAPKLLIYDNNKRPSGVPDRFSGSKSGTSASLAISGLRSEDEADYYCQSYDTGLSGWVFGGGTKLTVLG
8 | – | – | – | – | 86 | 92 | 72 | – | – | – | 002-H06 (Fab format) (Fab, V domains shown) VH: QVELLESGGGLVQPGGSLRLSCAASGFTFANYGLTWVRQAPGKGLEWVAVISFNGDKKYYADSVKGRFTISRDNSKNTLYLQMNSLRAEDTAVYYCASPLESPVAFDIWGQGTLVTVSS VL: QSVLTQPPSASGTPGQRVTISCSGSYSNIGGNPVNWYQQLPGTAPKLLIYGNSNRPSGVPDRFSGSKSGTSASLAISGLRSEDEADYYCQSYDSSLSGSVFGGGTKLTVLG
9 | 1.8 | – | 15.8 | 0.0048 | – | – | – | – | 1.2 | – | 001-E06 (antibody, V domains shown, Tested as human IgG1) VH: QVELLESGGGLVQPGGSLRLSCAASGFTFSSYWMSWVRQAPGKGLEWVSSVSDTGTDTHYADSVKGRFTISRDNSKNTLYLQMNSLRAEDTAVYYCAKTPLAYSSGWYYFDYWGQGTLVTVSS VL: DIVLTQPPSASGTPGQRVTISCSGSSSNIGSNTVNWYQQLPGTAPKLLIYRNYQRPSGVPDRFSGSKSGTSASLAISGLRSEDEADYYCQSYDSSLSGSVFGGGTKLTVLG
10 | – | – | 2.7 | 0.00054 | – | – | – | 0.54 µg/ml and 3.6 nM | – | – | 002-H06 (antibody, V domains shown, Tested as human IgG1) VH: QVELLESGGGLVQPGGSLRLSCAASGFTFANYGLTWVRQAPGKGLEWVAVISFNGDKKYYADSVKGRFTISRDNSKNTLYLQMNSLRAEDTAVYYCASPLESPVAFDIWGQGTLVTVSS VL: QSVLTQPPSASGTPGQRVTISCSGSYSNIGGNPVNWYQQLPGTAPKLLIYGNSNRPSGVPDRFSGSKSGTSASLAISGLRSEDEADYYCQSYDSSLSGSVFGGGTKLTVLG
11 | – | – | – | – | 45 | 63 | 36 | – | – | – | 001-E06 (Fab format) (Fab, V domains shown) VH: QVELLESGGGLVQPGGSLRLSCAASGFTFSSYWMSWVRQAPGKGLEWVSSVSDTGTDTHYADSVKGRFTISRDNSKNTLYLQMNSLRAEDTAVYYCAKTPLAYSSGWYYFDYWGQGTLVTVSS VL: DIVLTQPPSASGTPGQRVTISCSGSSSNIGSNTVNWYQQLPGTAPKLLIYRNYQRPSGVPDRFSGSKSGTSASLAISGLRSEDEADYYCQSYDSSLSGSVFGGGTKLTVLG
12 | – | – | – | – | 100 | 100 | 100 | – | – | – | 006-H08 (scFv format) (scFv, V domains shown) VH: not shown VL: DIVLTQPPSASGTPGQRVTISCSGSNSNIGSNPVNWYQQLPGTAPKLLIYDNNKRPSGVPDRFSGSKSGTSASLAISGLRSEDEADYYCQSYDTGLSGWVFGGGTKLTVLG
